From PMC2923778 (Journal of Molecular Biology, 2010) come the findings set out here.

Experiment [1] addresses T1, mSPSB2(12–224) (Mus musculus, UniProt O88838).
T1 construct: mSPSB2(12–224) and mutants used in this study have been described previously; GST (cleaved yes); made in house; host or cells: E. coli Origami B(DE3) pLysS
T1 sequence (O88838 12-224): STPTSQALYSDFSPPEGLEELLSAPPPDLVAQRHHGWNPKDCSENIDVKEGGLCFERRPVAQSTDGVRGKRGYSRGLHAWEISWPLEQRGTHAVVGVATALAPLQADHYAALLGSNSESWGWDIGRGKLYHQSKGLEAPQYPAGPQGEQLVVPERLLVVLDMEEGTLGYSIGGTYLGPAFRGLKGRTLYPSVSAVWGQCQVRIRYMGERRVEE
Briefly: ITC of hPar-4 peptides with mSPSB2(12–224). Format: binding, murine. The following applies: 22 °C, pH 8.0, nm [sic]. The protocol:
(§1) Shorter mSPSB constructs were also used for mSPSB1 and mSPSB4 lacking the C-terminal SOCS box region (mSPSB1ΔSB and mSPSB4ΔSB); they were cloned into pGEX-2T (GE Healthcare, UK). […] Each of the mSPSBΔSB constructs was expressed in Origami B(DE3) pLysS cells (Novagen, Madison, WI) as a GST fusion protein at 20 °C for 24 h with 0.5 mM IPTG added at OD600 = 0.6–0.8.
(§2) ITC measurements on mSPSB proteins were performed at 22 °C using a MicroCalorimetry System (MicroCal, Northhampton, MA). mSPSB1, mSPSB2, and mSPSB4 were prepared by dialyzing against 20 mM Tris, 150 mM sodium chloride, and 2.5 mM calcium chloride at pH 8.0. Measurements on hSPSB proteins were performed at 20 °C using a VP-ITC titration calorimeter (MicroCal). hSPSB1 protein was dialyzed against 50 mM Hepes, pH 7.4, 150 mM NaCl, and 1 mM DTT. hSPSB2 and hSPSB4 proteins were dialyzed against 50 mM Hepes, pH 7.4, 150 mM NaCl, and 0.5 mM TCEP. Peptides for each experiment were dissolved in the corresponding dialysis buffers. ITC measurements were routinely carried out by titrating 100 μM peptide solution into 10 μM protein. Dilution enthalpies were determined separately by titrating peptide into buffer and used to correct the enthalpies of the binding of protein and peptide. Data were analyzed using a single binding site model implemented in the Origin software package provided with the instrument.

The target in a further experiment is T2, mSPSB4ΔSB (Mus musculus, UniProt Q8R5B6).
T2 construct: mSPSB1 and mSPSB4 lacking the C-terminal SOCS box region (mSPSB1ΔSB and mSPSB4ΔSB); GST (cleaved yes); made in house; host or cells: E. coli Origami B(DE3) pLysS
T2 sequence (Q8R5B6 1-233): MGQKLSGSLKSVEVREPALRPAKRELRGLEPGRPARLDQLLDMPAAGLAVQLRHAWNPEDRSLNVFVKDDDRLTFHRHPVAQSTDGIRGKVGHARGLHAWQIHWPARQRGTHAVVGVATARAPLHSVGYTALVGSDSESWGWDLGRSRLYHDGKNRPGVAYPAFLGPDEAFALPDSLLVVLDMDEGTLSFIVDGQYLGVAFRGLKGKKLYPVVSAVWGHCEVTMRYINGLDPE
Briefly: ITC of hPar-4 peptides with mSPSB4ΔSB. Format: binding, murine. The following applies: 22 °C. Here is the method: as §1, §2

A further experiment deals with T3, mSPSB1ΔSB (Mus musculus, UniProt Q9D5L7).
T3 construct: mSPSB1 and mSPSB4 lacking the C-terminal SOCS box region (mSPSB1ΔSB and mSPSB4ΔSB); GST (cleaved yes); made in house; host or cells: E. coli Origami B(DE3) pLysS
T3 sequence (Q9D5L7 1-231): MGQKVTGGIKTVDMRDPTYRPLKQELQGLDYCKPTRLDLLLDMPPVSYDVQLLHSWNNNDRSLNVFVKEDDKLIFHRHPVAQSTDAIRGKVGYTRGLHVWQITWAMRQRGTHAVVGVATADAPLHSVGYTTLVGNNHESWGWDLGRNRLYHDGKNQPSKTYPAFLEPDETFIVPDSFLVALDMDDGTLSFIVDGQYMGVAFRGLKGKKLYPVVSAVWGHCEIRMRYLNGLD
Briefly: ITC of hPar-4 peptides with mSPSB1ΔSB. Format: binding, murine. The following applies: 22 °C.
From the text: Shorter mSPSB constructs were also used for mSPSB1 and mSPSB4 lacking the C-terminal SOCS box region (mSPSB1ΔSB and mSPSB4ΔSB); they were cloned into pGEX-2T (GE Healthcare, UK). The shorter mSPSB2 construct excluded the first 11 residues at the N-terminus and the C-terminus SOCS box [mSPSB2(12–224)]. mSPSB2(12–224) and mutants used in this study have been described previously.[21] Each of the mSPSBΔSB constructs was expressed in Origami B(DE3) pLysS cells (Novagen, Madison, WI) as a GST fusion protein at 20 °C for 24 h with 0.5 mM IPTG added at OD600 = 0.6–0.8. The mSPSBΔSB proteins were isolated according to the method used for purifying the mSPSB–elonginBC complex.
as §2

The target in the next experiment is mSPSB4ΔSB (murine). In words: ITC; 100 μM peptide titrated into 10 μM mSPSB protein; 22 °C; 20 mM Tris, 150 mM sodium chloride, 2.5 mM calcium chloride, pH 8.0; single binding site model. For orientation: Isothermal titration calorimetry measures the heat released or taken up as one component is titrated into another.
The target of experiment [2] is T4, mSPSB2(12–224) (murine, UniProt O88838 12-224).
T4 construct: murine SPSB2 (SSB-2), residues 12-224: lacks the first 11 residues and the C-terminal SOCS box; Uniformly 15N-labelled in one NMR experiment; also called mSPSB2ΔSB; 15N-mSPSB2(12–224); source: E. coli Origami B(DE3) pLysS, GST fusion, purified (glutathione-Sepharose, thrombin cleavage, gel filtration)
T4 sequence (looked up): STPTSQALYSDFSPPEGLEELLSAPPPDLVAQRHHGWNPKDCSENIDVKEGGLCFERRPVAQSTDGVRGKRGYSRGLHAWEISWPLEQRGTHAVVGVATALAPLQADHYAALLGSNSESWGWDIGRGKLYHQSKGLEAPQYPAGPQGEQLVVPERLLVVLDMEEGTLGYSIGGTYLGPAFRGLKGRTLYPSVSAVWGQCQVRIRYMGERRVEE
The experiment is described as above. Conditions: both partners purified.

Another experiment addresses mSPSB1ΔSB (murine). Described as above.
The target of a further experiment is T5, hSPSB1(24–233) (human, UniProt Q96BD6 24-233).
T5 construct: human SPSB1 lacking the SOCS box region, residues 24-233; also called human SPSB1 SPRY domain; source: E. coli BL21(DE3)-R3-pRARE2, purified (Ni-Sepharose, TEV cleavage, size-exclusion, anion exchange); not shown: His6, N-terminal, cleaved
T5 sequence (looked up): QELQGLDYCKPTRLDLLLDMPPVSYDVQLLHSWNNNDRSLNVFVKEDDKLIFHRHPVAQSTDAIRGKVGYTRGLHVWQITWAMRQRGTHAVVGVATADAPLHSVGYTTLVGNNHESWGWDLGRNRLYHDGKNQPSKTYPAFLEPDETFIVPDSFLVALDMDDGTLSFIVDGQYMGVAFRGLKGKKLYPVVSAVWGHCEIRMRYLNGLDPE
In words: ITC; 100 μM peptide titrated into 10 μM hSPSB protein; 20 °C; 50 mM Hepes pH 7.4, 150 mM NaCl, 1 mM DTT (hSPSB1) or 0.5 mM TCEP (hSPSB2, hSPSB4); single binding site model. The following applies: both partners purified.

In another experiment the target is T6, hSPSB2(26–219) (human, UniProt Q99619 26-219).
T6 construct: human SPSB2 lacking the SOCS box region, residues 26-219; also called human SPSB2 SPRY domain; source: E. coli BL21(DE3)-R3-pRARE2, purified (Ni-Sepharose, size-exclusion); not shown: His6, N-terminal, kept
T6 sequence (looked up): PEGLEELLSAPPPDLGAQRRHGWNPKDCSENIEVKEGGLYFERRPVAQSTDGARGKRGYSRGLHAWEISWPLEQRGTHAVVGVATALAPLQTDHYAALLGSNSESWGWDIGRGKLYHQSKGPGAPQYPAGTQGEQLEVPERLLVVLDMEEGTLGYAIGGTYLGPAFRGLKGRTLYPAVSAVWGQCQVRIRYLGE
The description is as above. Conditions: both partners purified.

[3] abbreviates: 20 mM Tris, 150 mM NaCl, 2.5 mM CaCl2, pH 8.0, 100 μM peptide into 10 μM protein, ± standard error of the mean.

In general, Kd refers to the equilibrium constant for the complex coming apart. Usually stoichiometry N stands for the number of molecules, sites or subunits per partner or assembly.

Where no end group is shown, it is not given here.

Consider AAANELANNLPGGA [[N70A]hPar-4(64–77)], for which the Kd at mSPSB2(12–224) [1] was over 50000 nM; at mSPSB4ΔSB (pH 8.0, nm [sic]), over 50000 nM; on mSPSB1ΔSB (pH 8.0, nm [sic]), over 50000 nM.

Consider hPar-4(59–77) (peptide), for which the Kd in the experiment with mSPSB4ΔSB (murine) came out at 189 nM.

On mSPSB4ΔSB (setting [3]), AAANEINNNLPGGA [[L69I]hPar-4(64–77)] showed a dissociation constant Kd of 55 ± 8 nM.

In the case of AAANELNANLPGGA [[N71A]hPar-4(64–77)], the dissociation constant Kd at mSPSB2(12–224) [1] was over 50000 nM; on mSPSB4ΔSB (pH 8.0, nm [sic]), over 50000 nM; at mSPSB1ΔSB (pH 8.0, nm [sic]), over 50000 nM.

“GTPAAAADNELNNNLPGGA [[A66D]hPar-4(59–77)]” came in with a Kd on mSPSB4ΔSB (setting [3]) of 255 ± 5 nM.

In turn, `CC(C)C[C@H](NC(=O)[C@H](CCC(=O)O)NC(=O)[C@H](CC(N)=O)NC(=O)[C@H](C)NC(=O)[C@H](C)NC(=O)[C@H](C)NC(=O)[C@H](C)NC(=O)[C@H](C)NC(=O)[C@@H]1CCCN1C(=O)[C@@H](NC(=O)CN)[C@@H](C)O)C(=O)N[C@@H](CC(N)=O)C(=O)N[C@@H](CC(N)=O)C(=O)N[C@@H](C)C(=O)N[C@@H](CC(C)C)C(=O)N1CCC[C@H]1C(=O)NCC(=O)NCC(=O)N[C@@H](C)C(=O)O` [[N72A]hPar-4(59–77)] returned a Kd on mSPSB2(12–224) [1] of over 50000 nM.

With AAANELNNNLPGGA [hPar-4(64–77)], the figures for the Kd at mSPSB4ΔSB (setting [3]) and on mSPSB1ΔSB (setting [3]) were 213 ± 7 nM and 210 ± 19 nM, respectively.

In turn, AAANDLNNNLPGGA [[E68D]hPar-4(64–77)] displayed a Kd on mSPSB4ΔSB (setting [3]) of 47 ± 22 nM.

As to “AAANDINNNLPGGA [[E68D,L69I]hPar-4(64–77)]”, the Kd is 33 ± 23 nM on mSPSB4ΔSB (setting [3]) and 40 ± 5 nM at mSPSB1ΔSB (setting [3]).

B1: [A66D]hPar-4(59–77) (peptide)
peptide: GTPAAAADNELNNNLPGGA
notes: human prostate apoptosis response protein-4 (hPar-4), residues 59-77, A66D; source: synthetic peptide (GL Biochem)
For the molecule B1, the values for the dissociation constant Kd in the experiment with mSPSB4ΔSB (murine) and with mSPSB2(12–224) [2] were 255 nM and 4000 nM, respectively.

B2: [E68D,L69I]hPar-4(64–77) (peptide)
peptide: AAANDINNNLPGGA
notes: human prostate apoptosis response protein-4 (hPar-4), residues 64-77, E68D and L69I (DINNN motif as in VASA); also called double mutant; source: synthetic peptide (GenScript Corporation)
Turning to B2, the Kd with mSPSB1ΔSB (murine) stood at 40 nM; with mSPSB4ΔSB (murine), 33 nM; with mSPSB2(12–224) [2], 106 nM.

B3: [E68D]hPar-4(64–77) (peptide)
peptide: AAANDLNNNLPGGA
notes: human prostate apoptosis response protein-4 (hPar-4), residues 64-77, E68D
With B3, the Kd was 47 nM with mSPSB4ΔSB (murine) and 208 nM in the experiment with mSPSB2(12–224) [2].

B4: [L69I]hPar-4(64–77) (peptide)
peptide: AAANEINNNLPGGA
notes: human prostate apoptosis response protein-4 (hPar-4), residues 64-77, L69I
Regarding B4, the results for the Kd with mSPSB4ΔSB (murine) and with mSPSB2(12–224) [2] were 55 nM and 1600 nM, respectively.

B5: [N71A]hPar-4(64–77) (peptide)
peptide: AAANELNANLPGGA
notes: human prostate apoptosis response protein-4 (hPar-4), residues 64-77, N71A; source: synthetic peptide (GenScript Corporation)
As to B5, the Kd in the experiment with mSPSB1ΔSB (murine) and in the experiment with mSPSB4ΔSB (murine) was over 50000 nM each time.

B6: [N70A]hPar-4(64–77) (peptide)
peptide: AAANELANNLPGGA
notes: human prostate apoptosis response protein-4 (hPar-4), residues 64-77, N70A; source: synthetic peptide (GenScript Corporation)
On to B6, for which the Kd in the experiment with mSPSB1ΔSB (murine) and in the experiment with mSPSB4ΔSB (murine) was over 50000 nM in each case.

B7: hPar-4(67–81) (peptide)
peptide: NELNNNLPGGAPAAP
notes: human prostate apoptosis response protein-4 (hPar-4), residues 67-81; source: synthetic peptide (ThermoElectron GmbH)
Consider B7, for which, in the experiment with hSPSB1(24–233), the Kd is 150 nM, the dH was -13.2 ± 0.1 kcal/mol and the “stoichiometry N” value is 0.94. In the experiment with hSPSB2(26–219), the Kd is 1520 nM, the dH was -16.2 ± 0.1 kcal/mol and the “stoichiometry N” value came out at 1.18.

B8: VASA(184–203) (peptide)
peptide: DINNNNNIVEDVERKREFYI
notes: DEAD-box RNA helicase VASA of Drosophila, residues 184-203; also called VASA-derived peptide; source: synthetic peptide (ThermoElectron GmbH)
For B8, in the experiment with hSPSB1(24–233), the dH was -20.5 ± 0.2 kcal/mol and the “stoichiometry N” value was found to be 0.96. Also, in the experiment with hSPSB2(26–219), the Kd came to 147 nM, the dH was -23.9 ± 0.1 kcal/mol and the “stoichiometry N” value stood at 0.96.
